The target of the assay is HLA-A*02:01. Briefly: IEDB peptide-MHC binding, purified MHC/competitive/radioactivity; ≥ and ≤ were set here for values at or beyond the usual limits of such assays.
The mark [1] stands for this setting: source organism: Vaccinia virus WR.
Setting [2] is: source organism: Mammarenavirus machupoense.
Where [3] appears, read: source organism: Mammarenavirus brazilense.
Setting [4] is: source organism: Mammarenavirus whitewaterense.
Where [5] appears, read: source organism: Mammarenavirus choriomeningitidis.
The mark [6] stands for this setting: source organism: Influenza A virus.

What is called IC50 is the concentration that inhibits the measured activity by half.

In the case of MLLHVGIPL, under setting [1], the IC50 came out at 1.4 nM. The same measure, in the same setting: as for MLMFIFTGI, the figure is 0.38 nM; as for MLNFSIYSV, 0.15 nM; as for MLNGIMYRL, 0.35 nM. For the sequence MLPKQDIVGL, under setting [1], the IC50 is 96 nM. Same read-out and setting: as for MLVNRMQRI, the figure is 48 nM; as for MLYFAGGLSV, 0.35 nM. On the same count and under the same terms, next, MMCYFLTATL: 18 nM; MMIDDFGTA: 3.2 nM.

In the case of MMKTYIEFV, the IC50 under setting [1] was determined as 4.7 nM. The same measure, in the same setting: as for MMMMKWIISI, the figure is 10 nM; as for MMWDLKKKGL, 103 nM; as for MQRIISLSV, 454 nM. The same measure, in the same setting: next, MTFGDIPLV: 0.98 nM. The same measure, in the same setting: as for MTLSCNGET, the figure is 1940 nM; as for MTPSPFYTV, 6.4 nM; as for MTPSPFYTVM, 1700 nM.

For the sequence MVDEEPAAL, the concentration for half-maximal inhibition (IC50) under setting [2] came to 998 nM. For the sequence MVISLLSMI, the IC50 under setting [1] worked out at 155 nM. For MVNHSTYYV, the half-inhibitory concentration (IC50) under setting [3] stood at 27 nM. MVNTVLITV: under setting [1], the IC50 was found to be 121 nM. Still for that read-out and setting: as for NAPIKTFML, the figure is 3410 nM. NASYITPYV: the IC50 under setting [4] is 263 nM. With NIEKYFTFLV, the IC50 under setting [1] was determined as 1450 nM. Still for that read-out and setting: as for NIHSEMYSL, the figure is 580 nM. On to NIIDWQFAI, for which the IC50 under setting [1] was 5.4 nM. In the case of NISGYNFSL, under setting [5], the IC50 came to 642 nM. Regarding NISTILYFT, the IC50 under setting [1] was 128 nM. Turning to NIVIFVKRL, the IC50 under setting [1] is 1280 nM. The same measure, in the same setting: as for NIVWEKKSLV, the figure is 63 nM; as for NIWAIIPLSA, 87 nM; as for NIYCLEYINT, 882 nM.

As for NIYLNFPWL, the IC50 under setting [1] came out at 1210 nM. The same measure, in the same setting: next, NLATSIYTI: 1.2 nM.

NLFDIPLLTV: the IC50 under setting [1] stood at 0.33 nM. With NLFTFLHEI, under setting [1], the IC50 came out at 1.1 nM.

Turning to NLLLWPLYV, the IC50 under setting [1] was determined as 0.12 nM.

Regarding NLLSKNTFYL, the IC50 under setting [1] worked out at 1.4 nM. The same measure, in the same setting: next, NLNIVRDML: 2760 nM; NLNIVRDMLV: 28 nM; NLNMTDGDSV: 4320 nM.

For NLNQVIQSV, the IC50 under setting [5] turned out to be 28 nM.

Consider NLPEDIKRV, for which the IC50 under setting [1] is 151 nM. The same measure, in the same setting: as for NLPSSENYM, the figure is 135 nM. On to NLSNCVHPAV, for which the IC50 under setting [3] was found to be 153 nM.

Turning to NLTEMQEAV, the IC50 under setting [2] was determined as 547 nM. As to NLVKLSSYHV, under setting [1], the IC50 was 1420 nM. The same measure, in the same setting: next, NLVKWPLLNI: 146 nM; NLYDDNDIRT: 40 nM.

With NLYDHALMSI, for the setting “source organism: Mammarenavirus lassaense”, the IC50 was found to be 3.9 nM. Regarding NMISDTIFV, the IC50 under setting [1] was 2.2 nM. The same measure, in the same setting: as for NMNYSDDYMM, the figure is 2640 nM. On the same count and under the same terms, as for NMQTVKLFV, the figure is 12 nM. Same read-out and setting: next, NQLYLTVSFI: 520 nM; NTFYLFTFT: 492 nM. In the case of NTFYLFTFTI, under setting [1], the IC50 turned out to be 55 nM. Same read-out and setting: next, NTIDQTANV: 162 nM. Take NTSWNDTVT: under setting [1], the IC50 turned out to be 146 nM. As for NVDNLIMIV, the IC50 under setting [1] amounted to 170 nM. Still for that read-out and setting: next, NVDSTDELM: 1940 nM. As for NVFETRIVM, the IC50 under setting [1] was found to be 2640 nM.

Consider NVFKYLTSV, for which the half-maximal inhibitory concentration (IC50) under setting [1] was 0.75 nM. Still for that read-out and setting: next, NVVSSSTIA: 588 nM; NVYPGVWNT: 830 nM. On the same count and under the same terms, as for PAVVYSTCTV, the figure is 2310 nM. On to PIKFIAEFLV, for which, under setting [1], the IC50 was 4460 nM. Take PITDSLSFKL: under setting [1], the IC50 came to 2660 nM.

As to PLGILSNYV, the half-inhibitory concentration (IC50) under setting [1] was 2710 nM. On the same count and under the same terms, next, PLLFILFYFA: 42 nM; PLLNIGIVL: 1420 nM; PLYEVNSTM: 4580 nM.

For the sequence PLYEVNSTMT, the IC50 under setting [1] was 3420 nM.

For PMLYQLLEA, the IC50 under setting [1] came out at 1070 nM. On to PMLYQLLEAV, for which, under setting [1], the IC50 came out at 1090 nM. For PVLMFLLFYV, under setting [1], the IC50 came out at 69 nM.

As to PVNAINDRL, the IC50 under setting [1] is 3460 nM. The same measure, in the same setting: next, QAIMESDSFL: 67 nM. The same measure, in the same setting: next, QAKTKNFTI: 3800 nM. Regarding QIAILVTTV, the IC50 under setting [6] was 1090 nM. Take QIFEVYWYL: under setting [1], the IC50 stood at 11 nM. For the sequence QLDMIITAV, the IC50 under setting [4] was 57 nM. QLEHGSCQPV: the IC50 under setting [1] stood at 16 nM. With QLFSFFEEV, the IC50 under setting [3] came to 12 nM. Same read-out and setting: next, QLIFFLTLA: 122 nM. QLLEAVYGNI: under setting [1], the IC50 worked out at 199 nM. As for QLMWALGENMA, the IC50 under setting [6] worked out at 848 nM. Turning to QLVDAIDNI, the IC50 under setting [1] stood at 154 nM. Turning to QLVDAIDNIV, under setting [1], the IC50 was found to be 101 nM. Same read-out and setting: next, QLVWENFLA: 22 nM; QLYLTVSFI: 3280 nM. Still for that read-out and setting: as for QMTSTFIML, the figure is 420 nM; as for QTANVVFRYM, 729 nM; as for QTCAGVIEYA, 359 nM. Same read-out and setting: next, QTSVFSATV: 1670 nM; RIDKTMKYI: 2660 nM.

For the sequence RIDMIDNLNI, under setting [1], the IC50 was 2550 nM. The same measure, in the same setting: as for RIIDSEVVV, the figure is 94 nM.

The values are drawn from the Immune Epitope Database (IEDB).
